Values joined by “and” are separate entries in the source; they are usually repeats but may differ in a detail not shown here. Identical values can stand only once.
Columns and labels:
[1] = molecular target: B7-H3 antigen protein (UniProt Q5ZPR3); assay: blocking ELISA, coated B7-H3 10 µg/mL; no blocker (m2Y31 0 µg/mL); hu2Y31 2 µg/mL
[2] = molecular target: B7-H3 antigen protein (UniProt Q5ZPR3); assay: blocking ELISA, coated B7-H3 10 µg/mL; no blocker (m2Y31 0 µg/mL); 8H9 2 µg/mL
[3] = molecular target: B7-H3 antigen protein (UniProt Q5ZPR3); assay: blocking ELISA, coated B7-H3 10 µg/mL; no blocker (m1B4 0 µg/mL); 8H9 2 µg/mL

Chain of B7-H3 antigen protein (Q5ZPR3 29-461): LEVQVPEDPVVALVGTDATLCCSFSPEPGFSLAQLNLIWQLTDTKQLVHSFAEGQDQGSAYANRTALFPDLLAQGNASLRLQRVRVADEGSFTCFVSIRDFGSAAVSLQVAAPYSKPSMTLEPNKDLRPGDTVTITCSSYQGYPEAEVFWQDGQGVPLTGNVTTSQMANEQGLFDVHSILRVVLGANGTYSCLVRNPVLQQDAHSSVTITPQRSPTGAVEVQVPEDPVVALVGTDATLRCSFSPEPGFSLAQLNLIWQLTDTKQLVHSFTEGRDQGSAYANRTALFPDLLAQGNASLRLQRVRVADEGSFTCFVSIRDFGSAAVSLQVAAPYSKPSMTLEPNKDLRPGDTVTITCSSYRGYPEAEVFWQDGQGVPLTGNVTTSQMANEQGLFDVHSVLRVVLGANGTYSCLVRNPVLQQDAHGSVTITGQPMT

| OD value (450 nm) [1] | OD value (450 nm) [2] [OD450] | OD value (450 nm) [3] | Binder |
| --- | --- | --- | --- |
| 2.07 OD450 and 2.02 OD450 | – | – | humanized 2Y31 antibody (antibody, V domains shown) VH: EVQLVESGGGLVKPGGSLKLSCAASGFAFSRYDMSWVRQSPEKRLEWVATISDDGRHTYDRDSVKGRFTISRDNAKNTLYLQMSSLRSEDTALYYCVRHRAITTARFDYWGQGTTVTVSS VL: DIVMTQSPSSLSVSLGDTVSITCKASQDIYSNIGWLQQLPGQSFKGLIYHGTNLEDGVPSRFSGSGSGTDYSLTISGLESEDFADYYCLQYVQFPYTFGGGTKLEIKA |
| – | 2.36 | 3.38 OD450 and 3.39 OD450 | antibody 8H9 (antibody, from another filing, V domains shown) VH: QVQLQQSGAELVKPGASVKLSCKASGYTFTNYDINWVRQRPEQGLEWIGWIFPGDGSTQYNEKFKGKATLTTDTSSSTAYMQLSRLTSEDSAVYFCARQTTATWFAYWGQGTLVTVSA VL: DIVMTQSPATLSVTPGDRVSLSCRASQSISDYLHWYQQKSHESPRLLIKYASQSISGIPSRFSGSGSGSDFTLSINSVEPEDVGVYYCQNGHSFPLTFGAGTKLELKR |
